Patent publication US20160031999A1 (CSL, published 2016)
Substitutions are numbered along the chain they refer to.

T1: human IL-11Rα on transfected cells (human, UniProt Q14626 23-422)
T1 sequence: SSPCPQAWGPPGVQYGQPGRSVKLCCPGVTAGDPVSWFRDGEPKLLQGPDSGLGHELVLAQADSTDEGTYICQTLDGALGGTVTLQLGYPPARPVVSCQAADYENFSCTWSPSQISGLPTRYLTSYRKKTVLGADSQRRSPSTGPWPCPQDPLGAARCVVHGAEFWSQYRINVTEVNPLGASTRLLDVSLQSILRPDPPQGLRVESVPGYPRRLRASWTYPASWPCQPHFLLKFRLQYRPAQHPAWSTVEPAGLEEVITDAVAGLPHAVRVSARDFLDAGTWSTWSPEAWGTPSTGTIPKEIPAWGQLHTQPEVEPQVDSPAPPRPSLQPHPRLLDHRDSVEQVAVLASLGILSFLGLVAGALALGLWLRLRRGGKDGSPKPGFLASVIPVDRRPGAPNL

T2: human IL-11Rα (form used in the assay not stated) (human, UniProt Q14626 23-363, limits assumed)
T2 construct: also called hIL-11R; hIL-11Rα
T2 sequence: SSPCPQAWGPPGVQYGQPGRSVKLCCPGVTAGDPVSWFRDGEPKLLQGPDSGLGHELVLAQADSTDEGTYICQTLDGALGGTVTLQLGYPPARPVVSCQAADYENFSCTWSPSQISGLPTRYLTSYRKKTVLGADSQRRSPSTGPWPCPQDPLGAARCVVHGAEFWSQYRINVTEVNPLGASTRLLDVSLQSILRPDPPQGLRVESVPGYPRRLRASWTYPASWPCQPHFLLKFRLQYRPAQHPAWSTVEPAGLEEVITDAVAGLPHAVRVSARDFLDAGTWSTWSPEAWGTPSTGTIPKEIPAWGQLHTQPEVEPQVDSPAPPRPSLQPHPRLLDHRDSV

B1: hu8E2-TS-115 (antibody, V domains shown)
VH: EVQLLESGGGLVQPGGSLRLSCAASGFTFSWYSMTWVRQAPGKGLEWVSSIVPHGDLTQYADSVKGRFTISRDNSKNTLYLQMNSLRAEDTAVYYCAKGPGWGSFDLWGRGTLVTVSS
VL: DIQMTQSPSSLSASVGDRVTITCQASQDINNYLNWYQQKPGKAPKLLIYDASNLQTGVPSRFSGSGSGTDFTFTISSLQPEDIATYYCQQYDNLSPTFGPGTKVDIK
B2: hu8E2-TS-129 (antibody, V domains shown)
VH: B1 VH with H54S, D56G, L57H, G99P, P100E, G101D, S104M
VL: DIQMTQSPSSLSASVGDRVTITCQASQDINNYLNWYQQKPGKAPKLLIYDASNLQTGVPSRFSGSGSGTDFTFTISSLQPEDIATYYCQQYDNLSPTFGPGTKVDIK
B3: hu8E2-TS-133 (antibody, V domains shown)
VH: B1 VH with H54S, D56G, L57H, G99P, P100V, G101D, S104R
VL: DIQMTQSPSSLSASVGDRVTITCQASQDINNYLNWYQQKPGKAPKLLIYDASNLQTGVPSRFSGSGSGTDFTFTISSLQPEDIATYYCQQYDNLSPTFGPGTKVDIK
B4: hu8E2-TS-134 (antibody, V domains shown)
VH: B1 VH with H54S, D56G, L57H, G99P, P100E, G101D, S104L
VL: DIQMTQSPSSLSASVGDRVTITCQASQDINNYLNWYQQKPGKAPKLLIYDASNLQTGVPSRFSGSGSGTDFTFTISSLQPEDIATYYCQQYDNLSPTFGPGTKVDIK
B5: hu8E2-TS-135 (antibody, V domains shown)
VH: B1 VH with H54S, D56G, L57H, G99P, P100L, G101D, S104L
VL: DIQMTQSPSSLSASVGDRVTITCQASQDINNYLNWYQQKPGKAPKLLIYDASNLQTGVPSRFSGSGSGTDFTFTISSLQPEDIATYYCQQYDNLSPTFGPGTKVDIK
B6: hu8E2-TS-136 (antibody, V domains shown)
VH: B1 VH with H54S, D56G, L57H, G99P, P100L, G101D, S104R
VL: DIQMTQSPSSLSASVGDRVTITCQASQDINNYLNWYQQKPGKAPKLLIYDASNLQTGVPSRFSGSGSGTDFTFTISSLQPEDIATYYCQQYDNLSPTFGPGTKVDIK
B7: hu8E2-TS-140 (antibody, V domains shown)
VH: B1 VH with H54S, D56G, L57H, G99P, P100N, G101D, S104L
VL: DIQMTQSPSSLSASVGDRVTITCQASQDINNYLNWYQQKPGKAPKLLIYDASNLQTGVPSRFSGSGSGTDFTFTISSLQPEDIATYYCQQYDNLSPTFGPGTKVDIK
B8: hu8E2-TS-143 (antibody, V domains shown)
VH: B1 VH with H54S, D56G, L57H, G99P, P100H, G101D, S104L
VL: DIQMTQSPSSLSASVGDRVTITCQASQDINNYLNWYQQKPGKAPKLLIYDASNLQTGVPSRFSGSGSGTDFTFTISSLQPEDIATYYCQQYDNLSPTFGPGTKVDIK
B9: hu8E2-TS-151 (antibody, V domains shown)
VH: B1 VH with H54S, D56G, L57H, G99P, P100H, G101D, S104R
VL: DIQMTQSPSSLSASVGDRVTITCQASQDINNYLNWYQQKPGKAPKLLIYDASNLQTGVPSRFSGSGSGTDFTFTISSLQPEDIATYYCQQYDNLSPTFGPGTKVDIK
B10: hu8E2-TS-156 (antibody, V domains shown)
VH: B1 VH with H54S, D56G, L57H, G99P, P100E, G101D, S104R
VL: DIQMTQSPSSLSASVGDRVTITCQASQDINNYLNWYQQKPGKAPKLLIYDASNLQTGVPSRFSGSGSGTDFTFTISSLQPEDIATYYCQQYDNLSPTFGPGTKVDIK
B11: hu8E2-TS-213 (antibody, V domains shown)
VH: B1 VH with H54S, D56G, L57H, S104Q, D106A, L107V
VL: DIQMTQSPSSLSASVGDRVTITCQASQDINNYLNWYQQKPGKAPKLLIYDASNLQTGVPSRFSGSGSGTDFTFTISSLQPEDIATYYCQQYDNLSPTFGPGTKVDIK
B12: hu8E2-TS-214 (antibody, V domains shown)
VH: B1 VH with H54S, D56G, L57H, D106W, L107F
VL: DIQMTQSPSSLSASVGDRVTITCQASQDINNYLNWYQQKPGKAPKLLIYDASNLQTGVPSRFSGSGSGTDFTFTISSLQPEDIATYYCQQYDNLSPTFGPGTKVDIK
B13: hu8E2-TS-215 (antibody, V domains shown)
VH: B1 VH with H54S, D56G, L57H, D106W, L107Q
VL: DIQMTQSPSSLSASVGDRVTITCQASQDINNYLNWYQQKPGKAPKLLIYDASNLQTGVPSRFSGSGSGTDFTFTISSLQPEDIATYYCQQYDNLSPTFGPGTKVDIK
B14: hu8E2-TS-218 (antibody, V domains shown)
VH: B1 VH with H54S, D56G, L57H, D106W, L107E
VL: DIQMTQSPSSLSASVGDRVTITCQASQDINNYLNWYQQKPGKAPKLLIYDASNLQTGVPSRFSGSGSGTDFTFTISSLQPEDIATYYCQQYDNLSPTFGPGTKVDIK
B15: hu8E2-TS-221 (antibody, V domains shown)
VH: B1 VH with H54S, D56G, L57H, D106W, L107Y
VL: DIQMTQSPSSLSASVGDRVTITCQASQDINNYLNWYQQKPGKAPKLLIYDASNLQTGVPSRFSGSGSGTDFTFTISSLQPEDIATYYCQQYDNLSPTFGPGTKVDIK
B16: hu8E2-TS-222 (antibody, V domains shown)
VH: B1 VH with H54S, D56G, L57H, S104T, D106A, L107Y
VL: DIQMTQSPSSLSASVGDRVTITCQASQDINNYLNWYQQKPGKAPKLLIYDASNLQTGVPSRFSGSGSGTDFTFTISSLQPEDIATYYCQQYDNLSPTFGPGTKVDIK
B17: hu8E2-TS-224 (antibody, V domains shown)
VH: B1 VH with H54S, D56G, L57H, D106W, L107T
VL: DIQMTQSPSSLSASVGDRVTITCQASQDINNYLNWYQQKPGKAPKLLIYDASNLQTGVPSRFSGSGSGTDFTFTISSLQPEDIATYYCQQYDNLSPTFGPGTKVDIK
B18: hu8E2-TS-303 (antibody, V domains shown)
VH: B1 VH with H54S, D56G, L57H
VL: DIQMTQSPSSLSASVGDRVTITCQASQDVDYWVEWYQQKPGKAPKLLIYDASNLQTGVPSRFSGSGSGTDFTFTISSLQPEDIATYYCQQYDNLSPTFGPGTKVDIK
B19: hu8E2-TS-305 (antibody, V domains shown)
VH: B1 VH with H54S, D56G, L57H
VL: B18 VL with D30G, Y31I, W32Y
B20: hu8E2-TS-306 (antibody, V domains shown)
VH: B1 VH with H54S, D56G, L57H
VL: B18 VL with Y31K, W32Y
B21: hu8E2-TS-307 (antibody, V domains shown)
VH: B1 VH with H54S, D56G, L57H
VL: B18 VL with D30S, Y31M, W32Y
B22: hu8E2-TS-310 (antibody, V domains shown)
VH: B1 VH with H54S, D56G, L57H
VL: B18 VL with D30A, Y31M, W32Y, V33I
B23: hu8E2-TS-311 (antibody, V domains shown)
VH: B1 VH with H54S, D56G, L57H
VL: B18 VL with D30S, Y31Q, W32Y, V33I
B24: hu8E2-TS-312 (antibody, V domains shown)
VH: B1 VH with H54S, D56G, L57H
VL: B18 VL with V29I, D30G, Y31Q, W32Y
B25: hu8E2-TS-313 (antibody, V domains shown)
VH: B1 VH with H54S, D56G, L57H
VL: B18 VL with D30S, Y31G, W32Y
B26: hu8E2-TS-322 (antibody, V domains shown)
VH: B1 VH with H54S, D56G, L57H
VL: B18 VL with D30H, Y31H, W32Y, V33M

Assays:
[1] = biological target: T1, human IL-11Rα on transfected cells; assay: cell-based or functional assay
[2] = biological target: T2, human IL-11Rα (form used in the assay …); assay: Biacore, pH 8.5, 37°C
[3] = biological target: T2, human IL-11Rα (form used in the assay …); assay: Biacore, pH 8.5, 37°C; some heterogeneity observed, an accurate KD difficult to determine

| Binder | Fold increase in potency relative to 8E2 [1] [fold] | IC50 [1] [µg/mL] | Kd [2] [nM] | Kd [3] [nM] |
| --- | --- | --- | --- | --- |
| B1 | 5.7 | 0.26 | 0.735 |  |
| B2 | 4.7 | 0.2 | 0.63 |  |
| B3 | 4.1 | 0.23 | 0.513 |  |
| B4 | 4.3 | 0.22 | 0.52 |  |
| B5 | 4.8 | 0.2 | 0.525 |  |
| B6 | 6 | 0.16 | 0.232 |  |
| B7 | 1.5 | 0.42 | 0.471 |  |
| B8 | 1.6 | 0.39 | 0.416 |  |
| B9 | 2.4 | 0.26 | 0.242 |  |
| B10 | 4.9 | 0.13 | 0.631 |  |
| B11 | 1.2 | 0.51 |  | > 9 |
| B12 | 1.6 | 0.31 | 1.11 |  |
| B13 | 1.5 | 0.34 | 1.85 |  |
| B14 | 2.7 | 0.19 | 1.39 |  |
| B15 | 2.6 | 0.2 | 0.634 |  |
| B16 | 3.3 | 0.16 | 1.91 |  |
| B17 | 1.2 | 0.39 | 1.91 |  |
| B18 | 1.4 | 0.35 | 4.09 |  |
| B19 | 2.1 | 0.23 | 1.58 |  |
| B20 | 3.3 | 0.15 | 1.07 |  |
| B21 | 1.9 | 0.25 | 1.32 |  |
| B22 | 0.4 | 0.84 | 2.09 |  |
| B23 | 0.6 | 0.6 | 1.69 |  |
| B24 | 1.2 | 0.29 | 1.76 |  |
| B25 | 0.7 | 0.51 | 5.56 |  |
| B26 | 1.1 | 0.33 | 6.01 |  |
